Data published in patent US6399314B1, “Methods of detection of amyloidogenic proteins” (American Cyanamid Company, priority 1999, dated 2002).

What was measured:
[1] = target: T1, aggregated peptide (Aβ(1-40)) (Homo sapiens, UniProt P05067); experiment: Quenching of thioflavin fluorescence by titration with Congo red; assay type: binding; conditions: for Mode of binding to aggregated peptide: Congo red and thioflavin together on aggregated peptide
T1 construct: Aβ(1-40) was purchased from Anaspec (San Jose, Calif.); purchased Anaspec (San Jose, Calif.); host or cells: synthetic peptide
Description: In these experiments, thioflavin was complexed with aggregated peptide prior to titration with increasing amounts of Congo red. The resulting decrease in fluorescence intensity is due to energy transfer of the fluorescence emission of thioflavin to Congo red. Therefore, assays that rely on thioflavin alone are likely to generate false positives in primary assays, while spectroscopic assays described in this invention would identify the more promising inhibitors of amyloidogenesis.
(§1) Spectroscopic Assays. To determine the extent of aggregation, aliquots of the peptide were removed at various time intervals (up to nine hours), and diluted into PBS buffer-containing 10 μM thioflavin. The final concentrations of peptide and thioflavin in the fluorescence assay were 10 μM. The fluorescence intensities of the peptide-thioflavin complex were measured at excitation and emission wavelengths of 435 and 485 nm, respectively, after the reaction had equilibrated for five minutes. Fluorescence spectral scans were made using 435 nm excitation and 485 nm emission wavelengths using a SPEX™ fluorolog-2 spectrofluorometer (Instruments S.A.®, Jobin Yvon-Spex, Edison, N.J.). For the Congo red experiments, peptide-thioflavin complex was titrated with increasing concentrations of Congo red from 0.1 to 3.5 micromolar concentrations. The fluorescence intensity changes were measured at the above-mentioned spectral wavelengths. When fluorescence intensities were measured in a plate reader, the peptide was diluted into PBS buffer-containing 10 μM thioflavin, to a final volume of 100 μL.

[2] = Thioflavin fluorescence assay of the extent of aggregation of Aβ(1-40) in different buffers/media; assay type: physicochemical; design: key to Percent Aggregation in HEPES: ++ indicates aggregates were formed but not quantitated because end point was not reached; conditions: rotary shaker 500 rpm
Description: Fluorescence Spectroscopy. Thioflavin binds amyloid fibrils to induce a characteristic hyperchromic fluorescence shift in the spectrum (LeVine, J. Exp. Clin. Invest., 2:1-6, 1995). The induced fluorescence due to thioflavin is specific for amyloid β-pleated fibrils, but not for other β-sheet structures or for the soluble oligomeric forms of the peptide. Free thioflavin is a weak fluorophore with an excitation maximum at 330 nm. Upon binding to the amyloid fibrils, the fluorescence of thioflavin is enhanced with a red shift in the excitation spectrum by 100 nm, relative to the free form. We have used the increase in fluorescence intensity at excitation and emission wavelengths of 440 nm and 485 nm, respectively, to characterize the aggregation event.
as §1
Preparation ofAmyloid Peptide. Aβ(1-40) was purchased from Anaspec (San Jose, Calif.) and its chemical purity was verified using reverse phase HPLC, ESI-MS and protein sequencing methods. The lyophilized peptide was dissolved in hexafluoroisopropanol (HFIP) solvent to aid in disaggregation of peptide. Peptide in HFIP solvent, was stored at −80° C. Prior to use, peptide solution was thawed and the solvent was evaporated under a stream of nitrogen. The peptide was dissolved in buffer to obtain a concentration of 50 μM, sonicated approximately twenty to forty seconds, and then vortexed briefly, approximately five seconds or less, to aid dissohltion of peptide. To determine the effects of media on the rates of aggregation, peptide was dissolved in one of the following buffers: PBS, 50 mM HEPES™ or in NEUROBASAL™ medium. Peptide solutions were dispensed into microtiter plates at a final concentration of […] in 100 μL. Aggregation was initiated by shaking plates continuously in a rotary shaker.

[3] = system: rat fetal (E18) hippocampal cultures; experiment: Neurotoxicity assay (LDH release); assay type: cell-based; conditions: for Toxicity to neuronal cultures: 72 hour toxicity assay
Description: Neurotoxicity Assay. Peptide was aggregated according to the end points determined in the CD and fluorescence assay and applied to primary neuronal cell cultures to assess cytotoxicity of the aggregated peptide. The release of LDH was used to monitor cell viability in the presence of Aβ and Congo red.
Aβ(1-40) toxicity was assessed using eight day-in-vitro (DIV) rat fetal (E18) hippocampal cultures. The cells were cultured in 48-well dishes previously coated with […] 0.1 mg/ml of poly-L-lysine (100 μl/well) and, subsequently, with 100 μl/well of 5 μg/ml of mouse laminin. The cells were seeded at a density of 92,300 cells/well in a total volume of 500 μl of NEUROBASAL™ medium containing 1XB27 supplement, 5% heat inactivated and qualified fetal bovine serum, 0.5 mM glutamine, 50 μ/ml penicillin, and 0.05 mg/ml streptomycin, and were initially placed in humidified 5% CO2 in air. After twenty-four hours, the medium was replaced with fresh medium lacking the penicillin, streptomycin, and fetal bovine serum and the cultures were thereafter maintained in air containing 5% CO2 and 9% O2. Fresh medium was substituted into each well on day five. On the seventh day in vitro, the medium was replaced with antioxidant free B27 supplemented medium lacking the penicillin, streptomycin, and fetal bovine serum. The toxicity test was initiated on the eighth day in vitro by substituting into each well 500 μl of the medium used on day seven (as the control treatment) or an experimental solution prepared with the final (control) medium. Each experimental solution was tested on cultures contained in five wells. Toxicity was assessed on the eleventh day in vitro using the lactic acid dehydrogenase (LDH; Sigma 340-UV) assay. Aggregated peptide was diluted five-fold to a final concentration of 10 uM, for the toxicity assays. Complexes of Congo red with preformed aggregates and those formed in co-aggregates were tested in the cellular assays along with aggregated peptide in vehicle controls.

β-amyloid protein 1-40 = target: T2, β-amyloid protein 1-40 (Homo sapiens, UniProt P05067); experiment: Fluorescence spectroscopy of Congo red complexes with amyloid peptide; assay type: binding
T2 construct: Aβ (1-40) was dissolved in 100% hexafluoroisopropanol
Description: 3. Fluorescence spectroscopy was used to differentiate complexes of Congo red. Congo red binds to preformed fibrils as well as to intermediate aggregate forms of the amyloid polypeptide. […] The fluorescence excitation spectrum of Congo red in the aggregate-bound state is also red shifted relative to the free form of the […]. Changes in the fluorescence properties of Congo red are dependent on the aggregated state of the […]. The differences in the observed spectral characteristics of the coaggregates and complexes of the fibrillar polypeptide with Congo red are due to the differences in the relative hydrophobicity of the binding sites and to the number of bound Congo red molecules in the complexes with preformed fibrils and coaggregates.
The fluorescence emission spectra of complexes of Congo red were obtained after diluting the peptide fivefold into a buffered solution. Congo red was added to freshly diluted fibrillar peptide and the fluorescence spectrum was scanned at a final concentration of 10 μM of peptide. The concentrations of peptide and Congo red in the fluorescence assay were 10 μM and 8.6 μM respectively. The differences in the fluorescence intensities and emission wavelengths of the coaggregates and preformed aggregate-complexes, were due to the relative differences in the hydrophobicity of the binding sites in the two instances.

Aβ (1-40) = target: T3, Aβ (1-40) (Homo sapiens, UniProt P05067); experiment: CD spectroscopy of peptide aged in the presence of Congo red (coaggregates); assay type: biochemical; conditions: far-UV CD
T3 construct: Aβ (1-40) was dissolved in 100% hexafluoroisopropanol
Description: Circular Dichroism Spectroscopy. Conformational change of the peptide from the random coil to the β-sheet form, during aging, was monitored using changes to the molar ellipticity of the peptide at 200, 218, or 225 nm. This assay was also used to determine if the changes in the CD spectra occurred concurrently with the changes in the fluorescence spectra of thioflavin. The CD spectrum of the peptide was scanned at various time points to correlate the formation of thioflavin-binding macromolecular assemblies with the appearance of β-sheet conformation.
CD spectra were recorded on a JASCO™ spectropolarimeter model J715 (Jasco, Easton, Md.) at room temperature in a 0.1 cm pathlength cell. Typically, the peptide samples were aliquoted at various time intervals for fluorescence and the CD spectra were scanned using the remaining solution. The CD spectra of the peptide were recorded in the far-UV between 190-260 nm. The spectral results are expressed as deg.[…].dmol^−1.
Amyloid peptide (Aβ) was aged in the absence and presence of Congo red as described below: Aβ (1-40) was dissolved in 100% hexafluoroisopropanol to produce a final concentration of 200 or 400 μM. To aid dissolution of peptide, the solution was sonicated briefly, for about five seconds. An appropriate volume of the peptide solution was transferred to an amber vial and the solvent was evaporated under a stream of nitrogen. […]

T1 sequence (P05067 672-711 limits assumed): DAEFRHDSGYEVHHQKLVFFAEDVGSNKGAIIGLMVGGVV
T2 sequence (P05067 672-711 limits assumed): as above
T3 sequence (P05067 672-711 limits assumed): as above

For Cc1ccc2c(c1)sc(-c1ccc(N(C)C)cc1)[n+]2C.[Cl-] [thioflavin, Thioflavin T], the “Mode of binding to aggregated peptide” value [1] was “non-competitively”.
In the case of “Aβ (1-40): synthetic β-amyloid peptide corresponding to the first 40 amino acids of Aβ, purchased from Anaspec”, the “Percent Aggregation in HEPES” value ([2]; aggregation time 0 hr) is reported as 0%, the “Percent Aggregation in PBS” value ([2]; aggregation time 0 hr) is reported as 0% and the “Percent Aggregation in NEUROBASAL Medium” value ([2]; aggregation time 0 hr, relative to thioflavin/Aβ fluorescence at 0 and 4 hr) is reported as 0%. The “Percent Aggregation in HEPES” value ([2]; aggregation time 1 hr) was 0%, the “Percent Aggregation in NEUROBASAL Medium” value ([2]; aggregation time 1 hr) was 0% and the “Percent Aggregation in PBS” value ([2]; aggregation time 1 hr) was 0%. The “Percent Aggregation in HEPES” value ([2]; aggregation time 2 hr) was 0%, the “Percent Aggregation in NEUROBASAL Medium” value ([2]; aggregation time 2 hr) was 76% and the “Percent Aggregation in PBS” value ([2]; aggregation time 2 hr) was 51%. The “Percent Aggregation in HEPES” value ([2]; aggregation time 4 hr) was “++”, the “Percent Aggregation in NEUROBASAL Medium” value ([2]; aggregation time 4 hr) was 100% and the “Percent Aggregation in PBS” value ([2]; aggregation time 4 hr) was 100%. For the same compound, the “Toxicity to neuronal cultures” value ([3]; aggregated peptide (aged for four hours)) was “toxic” and the “Toxicity to neuronal cultures” value ([3]; fresh peptide) was “non-toxic”.
With Nc1c(/N=N/c2ccc(-c3ccc(/N=N/c4cc(S(=O)(=O)[O-])c5ccccc5c4N)cc3)cc2)cc(S(=O)(=O)[O-])c2ccccc12.[Na+].[Na+] [Congo red] the “Fluorescence enhancement relative to the free form” value (β-amyloid protein 1-40; Congo red co-aggregated with the amyloid polypeptide) was “eight-fold”, the “Fluorescence enhancement relative to the free form” value (β-amyloid protein 1-40; complex between preformed fibrils and Congo red) was “two-fold” and the “Effect on toxicity of Aβ” value ([3]; Congo red complexed with preformed aggregates and in co-aggregates) was “attenuates the toxicity”. For the same compound, the “Neuroprotection of cell cultures exposed to amyloid peptide” value ([3]; hippocampal cultures, LDH release) was “neuroprotective”, the “Effect on aggregation rate of the peptide” value (Aβ (1-40)) was “slowed down” and the “Mode of binding to aggregated peptide” value [1] was “non-competitively”. For the same compound, the “Quenching of fluorescence of free thioflavin” value ([1]; free thioflavin) was 50% and the “Quenching of fluorescence of peptide-bound thioflavin” value ([1]; peptide-bound thioflavin, Congo red 0.1 to 3.5 micromolar) was “greater than one order of magnitude”.
